Measurements from a protein production outcome set (Wang et al. 2014).

Test: label from the status in PepcDB records

Which protein production does the source give for “MDERPEGGDAQGAREGRDARGDGEPDEVVSGELLPYDDIAGVAAASVGLHALADDLAGERRELAVELRKFFVVLRLSVRRYAALRPYSPSSVSRYLSGDLVAPDHFVATLMDDVGRELGRPLSAQARGRVTGLQRAALRSSNSRAWKVQELEDRLAAAHQDAQVARTQADAVATLLHAERQRVAGVEEERQELARTLEAHQATSGAELDVLRAQQHRVRAERDTLRRRVADLEAALAAAEHRVAEAEQRCADLEHELLTADAAAAAEESAAAEQERARQQAELGSLRDEVARLRVAAERVPETSPARGTQAPRTSVHGAEADATGPVSGDRSAAAPADVPGAASSVTIVYAGFNRAWAAWIGDRLERWGVRAVLMLWDVPADIPLIDLLRDLKLAEGRILIVVSEWYFQLGLRSHDEWNEALREVVAPDPSRFVAVSVTNAPVPSAAAVLAAVDLTDTGADEAERRLLARLVGLPGDSLPAASGGERRGPRFPAATPEVWGGVPRRNTRFTGRESLLSDAYSLLKGAEPGAGVLTLHGMSGVGKTQLAVEYVYRFSSEYDVVWWVGADNRGVFRQTLAELASRLGLSTGAEYGERLRAVRDSLRRGDPYARWLLILDGADDPDQIEDLVPTGPGHVLITSRNLKWGEHNSELLEVPVYDRPESVAFIRRRAPRLAEADADRLAEALEDLPLLLDQTAGWLNDSDLSVGEYIALLDGGIDQDVVKVSADFPIAFRTAWSILLNKVRETVPEAVDLLRLCTFFAPGLIPVRFLREMPHNELPETITGLLNDRLLWNKAIHQLRQYSVVRLESHEAATDGSTSSGESLYLHRMVHQIVRNDMPEDERHEFAAVVRRALASADPGRPTDTRHWGEYAEIVPHLKYADVLDSPDPGVQRLVLNCLGYLHLSGRYAAGVELAERALEAWRELLGDTHPVIWELTAHHTNLLRSTGDYRRTEAVDRAAVEHLREERGELDPDHLRAAAGLAADLRGLGRYGEALELTRRLLTSCLDLLGEQDSRTLDAQHDLGFSLRLLGRYEEALDVDRRTLEARRALLSGRHPGILLSETSCATDLRLLGHYAEAESAQATNARAQRAVMGSDNPQTLRAEHNLALCQYRAGDREKAGKLFSRVLERYERTLGETDPLTLAAAVSQSCFAREYGDIDQAGAASESLIARYEAMLTDGHPFTIGARANHVLLLRQVGARDEARFGAEKALTAMAAAMGESHPWTLGCAINAAAVRQFIGDVESAAELSGSTVARATDALGRTHPLTLSARVAQAADLRGLREHRRAEEIEQEVLADLAATLGSRHVHTVSARSRNRPYWDFEPQPT” here?
The protein production was “failed”.

For “DLRSLFQTTVTEVRKLLVADRVMIIKVRQNKNFSWGEIQAEAQTDDKLCLLPPKERVPLSSRWIDHFAKGLILAMDDTDDQRADFDQSMLALAKANLVVPLFSGDRLWGVLSVHQCDGPRVWESSDIEFALKIALNLGVALQQAELLTESQRRSTALQSALGEVEAQKDYLARIAEEERALTRVIEGIRQTL”, which protein production is on record?
The protein production was “failed”.

With “MKMKILGISFGTKNGNNDTMCKVALKGAKEAGAEVEFIQMSSINIKHCTGCCACVKTLLSGKGSMCVLKDDFEWLLDKMKDADGIVVSDPIFEEGASGLFHTIMDRFGPRADRGNNIIGTKVAEAIGGKIPDSRMLNDKVISFMGIGGSDWGTRVQCEHAMLALIPMWKVIDNAWFPWAKELVMDDTRLVQVHQIGLNIVEAAKDFEKASYQGEEGVCPHCHNRLFYLEPGTKKAICALCGIVGELDTISGKTIFSFPEEQLGHAHDTLPGKFIHGDDIKKMEGHYAEVRKTQEFKERKTSYNFIETLTKEKQAGLEHHHHHH” as the sequence, how does the protein production read?
Its protein production is “failed”.

With “LVVSEARFRAAIDAVQGVLWTNNASGKMVGEQPGWSALTGQIREEYEGVGWTKVVHPDDVEPTLSAWLAAVAEKRTFEFEHRVRRHDGVWRDCLIRAVPLIGDNGEIREWVGVHTDISEQKAAAEK” as the sequence, how does the protein production read?
The protein production was “failed”.

For “MDGRPLNRTTRAVAMIAVTIPAHNEQALIGPCLQSIRVAAQHPALQGEAVEIHVALDRCTDQTGVIARAHGAITQEVCGGVGVARAAAASAAIARGAHWLACTDADTRVPPDWLMAQLACAADAFCGVVEVTDWRDHLSQTRAAFLASEIRHDGHPHVHGANLGMRTSAYLAAGGFSNASSSEDVALVAALEQAGMRIARLASPVVNTSARRSARASGGFADYLLRLEAALLAASPSLGLEHHHHHH”, which protein production is on record?
The protein production was “failed”.

Which protein production does the source give for “MKAEKNLNKTLKISYKALFFSFALTLIKLLAGFLGNSTALIADSIRSFSELINELKKLLEVFIASKPEDWSHNYGHGKVATLFTGAGACILLFAGIESISLASQELLIFIQGRETEAPEILALSAASLTLVSREIIPLFSSKGKEIEGTLSGTGIYTRNAQIRSLLLSCFVTLGIGCTFLPGKNWVVTDSFIAALMSLYLLGTSGKLLYGTANELIEASLDEEDNKKIRKIINTTEGVTGSGELKTRKIGNGIAINACITVSDSLNIQEVAEIADRVENRLKTVYGEDIYALVKAEPDPGRNCSFRKKMEFSEEGRKENKGINTQDKMLA” here?
Its protein production is “failed”.

For “MPVRVIVDSSACLPTHVAEDLDITVINLHVMNNGEERSTSGLSSLELAASYARQLERGGDDGVLALHISKELSSTWSAAVTAAAVFDDDSVRVVDTSSLGMAVGAAAMAAARMAKDGASLQECYDIAVDTLKRSETWIYLHRIDEIWKSGRISTATAMVSTALATRPIMRFNGGRMEIAAKTRTQSKAFAKLVELAQIRADGEPVFIAIGQNEAREAAKQLEELLRNALPEGSSFMSVDIDPTLAVHSGPGAVSVSAVFANQAPELSTGKAGAK”, which protein production is on record?
Its protein production is “not failed”.

With “PPPAPIPDLKVFEREGVQLNLSFIRPPENPALLLITITATNFSEGDVTHFICQAAVPKSLQLQLQAPSGNTVPARGGLPITQLFRILNPNKAPLRLKLRLTYDHFHQSVQEIFEVNNLPVESWQ” as the sequence, how does the protein production read?
Its protein production is “not failed”.

Which protein production does the source give for “MSEVQITFRKAREQDLMTYFNWANDEVTRKNSFGTNKIDLKTHTEWFLKKISSPDSLLLVFEDAAKIPVGQVRIECGEEEAVIGISIDSAFRGKSLSAFMIDSACTEYFRNFTKPIAAHIKATNTASVKAFEKAGFILKEEYTVDQELRFILLRQHV” here?
The protein production was “failed”.

With “MEERELTLSDILLMFKRRSKLFWLVLVLTVFATGIYLFLATPQYEAYARVKVSTQKGMRLGLSIEGLLGGLSSLLGGGGSQEDEIQIMLSRRNIIAVIDELDLVHKLLDEKDIEKAKKNGLTEDDLKLSLYSYMVEKLITVEPVKNSSILEVKVTWHEPKLAAEIANKIVENYTKISENIAKSQLGAKMDFLEEQIPKVEQELKEAESKLKVFKEQNRIYSVEAQTQVLIDRYASLLQKMEEARIAMEATQKQSEFFSKELKDLDIEIEQIKDSITFDPIISQLKSNMINIQIELAGLMERYTETNPAVVQKKAELQETQKQLEIELKRLLTSQVKKTGNPVYEEALSSLIKAESEKILYQSQYEAFKKLYEDMEKELSKLPELEQKLIELERDYKVKETIYTTLLQAKYESLISEAAITANANVIDWAVPPLEPSKPNKKLTLAIGGVLGIFLGILAVFFAEFSDRRIKSESEAEYLLGLEKIVARVPLTQNEEVMEKALGIPAVKSGKVTFITALEDGAGVSTLAKHMAKLLSKKEKVLLLTEEKVEGTFDRKDVFDLLKNPDVLEELKERYDKIIVDAPSLKRTPDFLPIAEKSDTVYIVIRLEHTLSEDLKTLHTLKKIDGFILNGLTKKNSTYVE” as the sequence, how does the protein production read?
The protein production was “failed”.

With “MKKNLLYLSCALMCMLGFLSSCKDDEKEIPPVVEDVVAQYTGDKVKVTLGGEAVSGDAQIDLVQQDDKSLTIKLLNIIPDVKEFSIPNAEFEATTRSAYISKLSGKVSNAVVGYDVTFEGVVDEGVLTASITATEIKGDSINAKKAGLTGKTFKGKMTINVSNIPTPIEMEQRVYTSVVSKDTSAIKLKINDFAFQGLKLGDISLDTVAVRHRGEQDGKPIYGFKTKSQEMTLEAVGKVLIDANGTIIGEKMELSLNVNAVTAGLTVGVDFSGNIVEESTDTKATITVTGDAVAEGVTVSGNTYTFKVWESTPDDQLVFIPKIEIPATAVLDSIIIYDNRNKKVSAVEPNTAIDFSQLKENYYVGYHVTPEDIRYPSKKMLKMVRIAELNPVYDMATWVADGDFEKPNGLTTSNLAAAFFPMFGIDVPTPVVKASDNAAEITTSRTVSATLPSTLVPGVTAGTMFLGEFKVDITNTLKSTHFGVPYRVKPVNFKITYKYTPGTTFYKTVVKNNANDTEVVPNEKDECSINAYLYEVDSYAETLDGTNINTSNKVIMKAVLEDGSAKADYVTLTIPFKETGNGSFDPTKKKYKLAIVCSSSKKGDQFMGADGSKLWVKYLEVTR” as the sequence, how does the protein production read?
The protein production was “failed”.

With “MAMSVKTISPIEAHRLVTGGRAVLVDVRERHEIAREHIDGAIELPLTGFKHGDLGAAHGRKAIFFCHSGGRTRMYAGQIDAKARGVCEPYVLGGGILAWRRAGFPTVQGPKPPSLFQRLFGRKPAD” as the sequence, how does the protein production read?
The protein production was “failed”.

With “MSLTSTATDSPLKYYDIGLNLTDPMFHGIYNGKQYHPADYVKLLERAAQRHVKNALVTGSSIAESQSAIELVSSVKDLSPLKLYHTIGVHPCCVNEFADASQGDKASASIDNPSMDEAYNESLYAKVISNPSFAQGKLKELYDLMNQQAKPHDTSFRSIGEIGLDYDRFHYSSKEMQKVFFEEQLKISCLNDKLSSYPLFLHMRSACDDFVQILERFVVGFTDEKDTFQLQKLGASSSSGFYKFHPDRKLVVHSFTGSAIDLQKLLNLSPNIFIGVNGCSLRTEENLAVVKQIPTERLLLETDAPWCEIKRTHASFQYLAKYQEVRDFEYPAFKSVKKNKLADKLNAEELYMVKGRNEPCNMEQVAIVVSEVKDVDLATLIDTTWKTTCKIFGEGHHHHHH” as the sequence, how does the protein production read?
The protein production was “not failed”.

Which protein production does the source give for “MLLTLEQELFTQFGYAAFKPGQKEVITNLLDGMNTLAVLPTGTGKSLCYQFVGQKLEGLTVIVSPLLSLMEDQMRQLQRQGIKGAVALNSTLQYSEKRYILAKMFQYDYLFLSPEMLLQQEVLSVLQRQKIALFVVDEAHCVYQWGVDFRPEYSKLDLVQKQLDFPLTLALTATATPVVQHAIIKQLFSHGSYQEVLSSVNRKNIGLFVKETSEKEEVLLDYLSKTAGKIIIYCATRNKTEQISQLIQAKTSFKVAYYHGGLEASERSRLQEQFIDNQIDILCATNAFGMGIDKPDVRGVIHFDLPDSLENYLQEIGRAGRDGQKSWALLLYKKGDEFIHRFFLEETRANRATLKSLIEGEEQAGLLENATELQQKWVQGYLAKDYSFEELEHRLEEKEKDRQAQLRGMLTYIETTTCRRTLIQTYFQEPIVKQSPETCCDNCALFFDIYQDSIVKSNKTSNQNEEGWRSKFLKLFKERD” here?
Its protein production is “failed”.

Which protein production does the source give for “MKNSFLCVGSFLLAASFFTSCTEDKDWSGGLKNSDLVFQTYLPTEGAKGTELSIRGNNFGEDISQVQVWVNEKEAEVISVTSTRIMARVAEASGSGVVKVRVGEVVYSYPDLFSYGYIRNVYTVAGNGQGTTVDGAYLQASVQWPIVMVYDKWDDAILFLQDEGEHRIRRMKDGKIETLCSTKSLVNNARSICFSLDGDTLFIGNDNANNYVANPVAVGMVTRKGGFKDLKSYIPSEKLAQPHINGIAVNPVDGSLFTYHWGRHVFRYNKATETCEYVITRDQFNELVVGLFPDADGNMQNIGGDGGYGGLAFSPDGKTLYWNGRDPYQGILKADYDLVTKKCTNLTRFAGNGVWGIIDGQGVSSRMDQPNQIAVDAEGNLLVTTVYGRTVRKITPEGYVSTYAGIGYQTGYVDGLAAEAKFNKPYGIAIDAQGNVYVGDCENWRIRVIKEE” here?
The protein production was “failed”.

For “MTKVHPKFPSTCEESLCDSKAAVVLTVWKKSLLFNCDGFTVYNANGELVFRVDNYMNCPRDNIVLMDASGFPLLSIRRKKLSLGDCWMVYDGETERDPIFTARKNVSIISNRKSLAWVSAKKTVLYEIEGSYGQRSCKILDERRNKKKTAEIKRKETVIGGVAFGKDVYKLIVESEMEPRVAMALTIILDQMFRSS”, which protein production is on record?
Its protein production is “failed”.

For “MDSMDHRIERLEYYIQLLVKTVDMDRYPFYALLIDKGLSKEEGEAVMRICDELSEELATQKAQGFVTFDKLLALFAGQLNEKLDVHETIFALYEQGLYQELMEVFIDIMKHFD”, which protein production is on record?
The protein production was “not failed”.
